B1: COBL (protein, UniProt O75128 1-1261, looked up)
Protein cordon-bleu: MDAPRASAAKPPTGRKMKARAPPPPGKAATLHVHSDQKPPHDGALGSQQNLVRMKEALRASTMDVTVVLPSGLEKRSVLNGSHAMMDLLVELCLQNHLNPSHHALEIRSSETQQPLSFKPNTLIGTLNVHTVFLKEKVPEEKVKPGPPKVPEKSVRLVVNYLRTQKAVVRVSPEVPLQNILPVICAKCEVSPEHVVLLRDNIAGEELELSKSLNELGIKELYAWDNRRETFRKSSLGNDETDKEKKKFLGFFKVNKRSNSKGCLTTPNSPSMHSRSLTLGPSLSLGSISGVSVKSEMKKRRAPPPPGSGPPVQDKASEKVSLGSQIDLQKKKRRAPAPPPPQPPPPSPLIPNRTEDKEENRKSTMVSLPLGSGSHCSPDGAPQVLSEAEETVSVGSCFASEDTTEDSGVMSSPSDIVSLDSQQDSMKYKDKWATDQEDCSDQDLAGTPDLGPQKSPLWEKNGSENSHLRTEKAVTASNDEEDLLIAGEFRKTLAELDEDLEEMEDSYETDTSSLTSSIHGASNHCPQDAMIPHGDTDAIPVTFIGEVSDDPVDSGLFSNRNNNAGSFDSEGVASRRDSLAPLQAEHSQPHEKAREEVPALHPASHDVGKGIRVALSNISKDGNLMETAPRVTSFASNLHTDNLNAKVKDKVYGCADGERTQATERVNSQPVNEKDSNDKNAALAPTSWHQRGQNPGKSYRLKHGLTTYKIIPPKSEMRCYDRDVSLSTGAIKIDELGNLVSPHATGIRIISLSSSVPEAESQPIGKVREFWRCNSVEKHLGRPSESSARGPPSTPVPTQTQNPESRLQADPKPISPQQKSAHHEGRNPLGEGRNQPPTMGMGHVRVPAAHTTEVTFLKPQRRTSSQYVASAIAKRIGAPKVHADVVRPHGYAEKGYAGKAPVLAAPPVTVKDDRTSSPHSETQGWKDGAQWPCVTPPNNHGEDLAVGAPPRGEVIGPHRKLSTQDRPAAIHRSSCFSLVQSSQRDRVSVGQSCGFSGKQSTSSQEASSASEPRRAPDGTDPPPPHTSDTQACSRELVNGSVRAPGHGEPSHPPGGSGTESHILLEREEKPSVFSTDGNETDSIWPPSIFGPKKKFKPVVQRPVPKDTSLHSALMEAIHSAGGKDRLRKTAEHTGEGRPAKLSYTEAEGERSALLAAIRGHSGTCSLRKVASSASEELQSFRDAALSAQGSESPLLEDLGLLSPPAIPPPPPPPSQALSAPRTASRFSTGTLSNTADARQALMDAIRSGTGAARLRKVPLLV
B2: HNRNPUL1 (protein, UniProt Q9BUJ2 1-856, looked up)
Heterogeneous nuclear …: MDVRRLKVNELREELQRRGLDTRGLKAELAERLQAALEAEEPDDERELDADDEPGRPGHINEEVETEGGSELEGTAQPPPPGLQPHAEPGGYSGPDGHYAMDNITRQNQFYDTQVIKQENESGYERRPLEMEQQQAYRPEMKTEMKQGAPTSFLPPEASQLKPDRQQFQSRKRPYEENRGRGYFEHREDRRGRSPQPPAEEDEDDFDDTLVAIDTYNCDLHFKVARDRSSGYPLTIEGFAYLWSGARASYGVRRGRVCFEMKINEEISVKHLPSTEPDPHVVRIGWSLDSCSTQLGEEPFSYGYGGTGKKSTNSRFENYGDKFAENDVIGCFADFECGNDVELSFTKNGKWMGIAFRIQKEALGGQALYPHVLVKNCAVEFNFGQRAEPYCSVLPGFTFIQHLPLSERIRGTVGPKSKAECEILMMVGLPAAGKTTWAIKHAASNPSKKYNILGTNAIMDKMRVMGLRRQRNYAGRWDVLIQQATQCLNRLIQIAARKKRNYILDQTNVYGSAQRRKMRPFEGFQRKAIVICPTDEDLKDRTIKRTDEEGKDVPDHAVLEMKANFTLPDVGDFLDEVLFIELQREEADKLVRQYNEEGRKAGPPPEKRFDNRGGGGFRGRGGGGGFQRYENRGPPGGNRGGFQNRGGGSGGGGNYRGGFNRSGGGGYSQNRWGNNNRDNNNSNNRGSYNRAPQQQPPPQQPPPPQPPPQQPPPPPSYSPARNPPGASTYNKNSNIPGSSANTSTPTVSSYSPPQPSYSQPPYNQGGYSQGYTAPPPPPPPPPAYNYGSYGGYNPAPYTPPPPPTAQTYPQPSYNQYQQYAQQWNQYYQNQGQWPPYYGNYDYGSYSGNTQGGTSTQ
B3: HNRNPR (protein, UniProt O43390 2-633, looked up)
Heterogeneous nuclear …: ANQVNGNAVQLKEEEEPMDTSSVTHTEHYKTLIEAGLPQKVAERLDEIFQTGLVAYVDLDERAIDALREFNEEGALSVLQQFKESDLSHVQNKSAFLCGVMKTYRQREKQGSKVQESTKGPDEAKIKALLERTGYTLDVTTGQRKYGGPPPDSVYSGVQPGIGTEVFVGKIPRDLYEDELVPLFEKAGPIWDLRLMMDPLSGQNRGYAFITFCGKEAAQEAVKLCDSYEIRPGKHLGVCISVANNRLFVGSIPKNKTKENILEEFSKVTEGLVDVILYHQPDDKKKNRGFCFLEYEDHKSAAQARRRLMSGKVKVWGNVVTVEWADPVEEPDPEVMAKVKVLFVRNLATTVTEEILEKSFSEFGKLERVKKLKDYAFVHFEDRGAAVKAMDEMNGKEIEGEEIEIVLAKPPDKKRKERQAARQASRSTAYEDYYYHPPPRMPPPIRGRGRGGGRGGYGYPPDYYGYEDYYDDYYGYDYHDYRGGYEDPYYGYDDGYAVRGRGGGRGGRGAPPPPRGRGAPPPRGRAGYSQRGAPLGPPRGSRGGRGGPAQQQRGRGSRGSRGNRGGNVGGKRKADGYNQPDSKRRQTNNQQNWGSQPIAQQPLQQGGDYSGNYGYNNDNQEFYQDTYGQQWK
B4: ABCF3 (protein, UniProt Q9NUQ8 2-709, looked up)
ATP-binding cassette …: ATCAEILRSEFPEIDGQVFDYVTGVLHSGSADFESVDDLVEAVGELLQEVSGDSKDDAGIRAVCQRMYNTLRLAEPQSQGNSQVLLDAPIQLSKITENYDCGTKLPGLLKREQSSTVNAKKLEKAEARLKAKQEKRSEKDTLKTSNPLVLEEASASQAGSRKESRLESSGKNKSYDVRIENFDVSFGDRVLLAGADVNLAWGRRYGLVGRNGLGKTTLLKMLATRSLRVPAHISLLHVEQEVAGDDTPALQSVLESDSVREDLLRRERELTAQIAAGRAEGSEAAELAEIYAKLEEIEADKAPARASVILAGLGFTPKMQQQPTREFSGGWRMRLALARALFARPDLLLLDEPTNMLDVRAILWLENYLQTWPSTILVVSHDRNFLNAIATDIIHLHSQRLDGYRGDFETFIKSKQERLLNQQREYEAQQQYRQHIQVFIDRFRYNANRASQVQSKLKMLEKLPELKPVDKESEVVMKFPDGFEKFSPPILQLDEVDFYYDPKHVIFSRLSVSADLESRICVVGENGAGKSTMLKLLLGDLAPVRGIRHAHRNLKIGYFSQHHVEQLDLNVSAVELLARKFPGRPEEEYRHQLGRYGISGELAMRPLASLSGGQKSRVAFAQMTMPCPNFYILDEPTNHLDMETIEALGRALNNFRGGVILVSHDERFIRLVCRELWVCEGGGVTRVEGGFDQYRALLQEQFRREGFL
B5: OSBPL3 (protein, UniProt Q9H4L5 1-887, looked up)
Oxysterol-binding …: MMSDEKNLGVSQKLVSPSRSTSSCSSKQGSRQDSWEVVEGLRGEMNYTQEPPVQKGFLLKKRKWPLKGWHKRFFYLDKGILKYAKSQTDIEREKLHGCIDVGLSVMSVKKSSKCIDLDTEEHIYHLKVKSEEVFDEWVSKLRHHRMYRQNEIAMFPHEVNHFFSGSTITDSSSGVFDSISSRKRSSISKQNLFQTGSNVSFSCGGETRVPLWLQSSEDMEKCSKDLAHCHAYLVEMSQLLQSMDVLHRTYSAPAINAIQGGSFESPKKEKRSHRRWRSRAIGKDAKGTLQVPKPFSGPVRLHSSNPNLSTLDFGEEKNYSDGSETSSEFSKMQEDLCHIAHKVYFTLRSAFNIMSAEREKLKQLMEQDASSSPSAQVIGLKNALSSALAQNTDLKERLRRIHAESLLLDSPAVAKSGDNLAEENSRDENRALVHQLSNESRLSITDSLSEFFDAQEVLLSPSSSENEISDDDSYVSDISDNLSLDNLSNDLDNERQTLGPVLDSGREAKSRRRTCLPAPCPSSSNISLWNILRNNIGKDLSKVAMPVELNEPLNTLQRLCEELEYSELLDKAAQIPSPLERMVYVAAFAISAYASSYYRAGSKPFNPVLGETYECIREDKGFQFFSEQVSHHPPISACHAESRNFVFWQDVRWKNKFWGKSMEIVPIGTTHVTLPVFGDHFEWNKVTSCIHNILSGQRWIEHYGEIVIKNLHDDSCYCKVNFIKAKYWSTNAHEIEGTVFDRSGKAVHRLFGKWHESIYCGGGSSSACVWRANPMPKGYEQYYSFTQFALELNEMDPSSKSLLPPTDTRFRPDQRFLEEGNLEEAEIQKQRIEQLQRERRRVLEENHVEHQPRFFRKSDDDSWVSNGTYLELRKDLGFSKLDHPVLW
B6: PWP2 (protein, UniProt Q15269 1-919, looked up)
Periodic tryptophan protein 2 …: MKFAYRFSNLLGTVYRRGNLNFTCDGNSVISPVGNRVTVFDLKNNKSDTLPLATRYNVKCVGLSPDGRLAIIVDEGGDALLVSLVCRSVLHHFHFKGSVHSVSFSPDGRKFVVTKGNIAQMYHAPGKKREFNAFVLDKTYFGPYDETTCIDWTDDSRCFVVGSKDMSTWVFGAERWDNLIYYALGGHKDAIVACFFESNSLDLYSLSQDGVLCMWQCDTPPEGLRLKPPAGWKADLLQREEEEEEEEDQEGDRETTIRGKATPAEEEKTGKVKYSRLAKYFFNKEGDFNNLTAAAFHKKSHLLVTGFASGIFHLHELPEFNLIHSLSISDQSIASVAINSSGDWIAFGCSGLGQLLVWEWQSESYVLKQQGHFNSMVALAYSPDGQYIVTGGDDGKVKVWNTLSGFCFVTFTEHSSGVTGVTFTATGYVVVTSSMDGTVRAFDLHRYRNFRTFTSPRPTQFSCVAVDASGEIVSAGAQDSFEIFVWSMQTGRLLDVLSGHEGPISGLCFNPMKSVLASASWDKTVRLWDMFDSWRTKETLALTSDALAVTFRPDGAELAVATLNSQITFWDPENAVQTGSIEGRHDLKTGRKELDKITAKHAAKGKAFTALCYSADGHSILAGGMSKFVCIYHVREQILMKRFEISCNLSLDAMEEFLNRRKMTEFGNLALIDQDAGQEDGVAIPLPGVRKGDMSSRHFKPEIRVTSLRFSPTGRCWAATTTEGLLIYSLDTRVLFDPFELDTSVTPGRVREALRQQDFTRAILMALRLNESKLVQEALEAVPRGEIEVVTSSLPELYVEKVLEFLASSFEVSRHLEFYLLWTHKLLMLHGQKLKSRAGTLLPVIQFLQKSIQRHLDDLSKLCSWNHYNMQYALAVSKQRGTKRSLDPLGSEEEAEASEDDSLHLLGGGGRDSEEEMLA

The first test has as its system GFP-14-3-3β and its binding proteins. In words: GFP-14-3-3β co-IP with LC-MS/MS label-free quantification, untreated versus PP1c-treated. Particulars: GFP-14-3-3β co-IP LC-MS/MS; PP1 vs untreated; student's t-test; label-free quantification, 3 replicates each. Further details: species or system human.
As to B1, the “Difference (log2), PP1 vs untreated” value is listed as -0.2795 log2.
Still for that read-out and setting: for B2 the value was -0.3133 log2; for B3, -0.2799 log2.
For the molecule B4, the “Difference (log2), PP1 vs untreated” value was -0.3214 log2.
For the molecule B5, the “Difference (log2), PP1 vs untreated” value was -0.2879 log2.
On the same count and under the same terms, for B6 the value was -0.2929 log2.

The test system of another test is GFP-14-3-3β. In words: GFP-14-3-3β co-IP with LC-MS/MS, untreated GFP-14-3-3β versus GFP control (14-3-3 interactome). It counts as binding, human. The note with it: GFP-14-3-3β co-IP LC-MS/MS; untreated vs GFP; student's t-test; label-free quantification, 3 replicates each.
Consider B1, for which the “Difference (log2), untreated vs GFP” value is recorded as -0.6052 log2.
Still for that read-out and setting: under B2 stands 0.2278 log2; under B3, 0.8033 log2.
For B4, the “Difference (log2), untreated vs GFP” value worked out at 1.23 log2.
In the case of B5, the “Difference (log2), untreated vs GFP” value was 1.582 log2.
Still for that read-out and setting: for B6 the value was 0.9621 log2.

For the origin of these results see paper PMC7367873, “Dissecting the sequence determinants for dephosphorylation by the catalytic subunits of phosphatases PP1 and PP2A” (Nature Communications, 2020).
